Key:
[1] = target: N-terminus His-tagged annexin V (human) (UniProt P08758); experiment: high-speed atomic force microscopy (HS-AFM); 1 uM annexin V added to supported lipid bilayers (DOPC:DOPS:biotinyl-DOPE = 7:2:1) on mica; 10 mM HEPES-NaOH pH 7.0, 2 mM CaCl2, 150 mM NaCl; trimers and 2D crystal lattice (p6) on the membrane
[2] = target: annexin V without any residual amino acids (human) (UniProt P08758); experiment: as above

How did the stoichiometry N [1] turn out when “N-terminus His-tagged annexin V (from UniProt P08758 1-320) (natural protein)” was run?
The stoichiometry N was 3.

How did the stoichiometry N [2] turn out when “annexin V without any residual amino acids (from UniProt P08758 1-320) (natural protein)” was run?
Its stoichiometry N is 3.

From article PMC9778525
